Source: patent US12295987B2, “Method of using a GIP/GLP1 co-agonist for diabetes” (Eli Lilly and Company, priority 2018, dated 2025)
Numbered stars: 1 amine (or outer) side, 2 acyl side, 3 side chain; on linkers, the order of the positions; unused ones are H or OH. Square brackets hold non-standard residues; d marks the D form. Side chains are listed from the residue outwards. Ends that are not written are not given here. * marks the point of attachment. C20 diacid = O=C(O)CCCCCCCCCCCCCCCCCCC(=O)*; C18 diacid = O=C(O)CCCCCCCCCCCCCCCCC(=O)*; γGlu = O=C(O)[C@H](CCC(=O)[*:2])N[*:1]; αMeF = C[C@](N)(Cc1ccccc1)C(=O)O; αMeL = CC(C)C[C@](C)(N)C(=O)O; αMeP = C[C@@]1(C(=O)O)CCCN1; cTA = not defined here; AEEA = NCCOCCOCC(=O)O; Aib = CC(C)(N)C(=O)O

Biological target: T1, human gastric inhibitory peptide receptor (hGIPR) (Homo sapiens, UniProt P48546)
T1 construct: expressed in transfected cells; host or cells: HEK293
T1 sequence (P48546 22-466): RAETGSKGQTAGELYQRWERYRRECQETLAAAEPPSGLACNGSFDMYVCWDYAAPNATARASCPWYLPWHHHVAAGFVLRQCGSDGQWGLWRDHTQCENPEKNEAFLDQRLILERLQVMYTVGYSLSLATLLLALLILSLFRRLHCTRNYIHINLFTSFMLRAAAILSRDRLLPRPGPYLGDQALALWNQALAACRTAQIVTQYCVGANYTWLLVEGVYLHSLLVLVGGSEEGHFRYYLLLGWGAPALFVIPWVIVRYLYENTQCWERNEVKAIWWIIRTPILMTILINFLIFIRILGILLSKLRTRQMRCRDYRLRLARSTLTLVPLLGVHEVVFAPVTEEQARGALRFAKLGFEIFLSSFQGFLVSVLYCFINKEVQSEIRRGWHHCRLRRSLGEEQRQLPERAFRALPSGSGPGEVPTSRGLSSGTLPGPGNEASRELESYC
Assay: cAMP pharmacological functional assay in presence of 0.1% casein, hGIPR
Type: cell-based
Conditions: ratio of hGIPR to hGLP1R cAMP EC50 ratios

Substance | [hGIPR/hGLP1R] EC50 Ratio
Y-Aib-cTA-GT-αMeF-TSDYSI-αMeL-LDEK((2-[2-(2-Amino-ethoxy)-ethoxy]-acetyl)2-(γGlu)-CO—(CH2)18—CO2H)AQ-Aib-AFIEYLIEGGPSSGAPPPS-NH2 (Y[Aib][cTA]GT[αMeF]TSDYSI[αMeL]LDEK([AEEA-AEEA-γGlu-C20 diacid])AQ[Aib]AFIEYLIEGGPSSGAPPPS-NH2; reading uncertain; also: printed as Y-Aib-cTA-GT-αMeF-TSDYSI-αMeL-LDEK((2-[2-(2-Amino-ethoxy)-ethoxy]-acetyl)2-(γGlu)-CO—(CH2)18—CO2H)AQ-Aib-AFIEYLIEGGPSSGAPPPS-NH2) [Peptide 120] | 5.24
Y-Pro-EGTFTSDYSILLDKK((2-[2-(2-Amino-ethoxy)-ethoxy]-acetyl)2-(γGlu)-CO—(CH2)18—CO2H)AQ-Aib-AFIEYLIEGGPSSGAPPPS-NH2 (YPEGTFTSDYSILLDKK([AEEA-AEEA-γGlu-C20 diacid])AQ[Aib]AFIEYLIEGGPSSGAPPPS-NH2; N-terminus assumed; SMILES CC[C@H](C)[C@H](NC(=O)[C@H](CC(C)C)NC(=O)[C@H](Cc1ccc(O)cc1)NC(=O)[C@H](CCC(=O)O)NC(=O)[C@@H](NC(=O)[C@H](Cc1ccccc1)NC(=O)[C@H](C)NC(=O)C(C)(C)NC(=O)[C@H](CCC(N)=O)NC(=O)[C@H](C)NC(=O)[C@H](CCCCNC(=O)COCCOCCNC(=O)COCCOCCNC(=O)CC[C@H](NC(=O)CCCCCCCCCCCCCCCCCCC(=O)O)C(=O)O)NC(=O)[C@H](CCCCN)NC(=O)[C@H](CC(=O)O)NC(=O)[C@H](CC(C)C)NC(=O)[C@H](CC(C)C)NC(=O)[C@@H](NC(=O)[C@H](CO)NC(=O)[C@H](Cc1ccc(O)cc1)NC(=O)[C@H](CC(=O)O)NC(=O)[C@H](CO)NC(=O)[C@@H](NC(=O)[C@H](Cc1ccccc1)NC(=O)[C@@H](NC(=O)CNC(=O)[C@H](CCC(=O)O)NC(=O)[C@@H]1CCCN1C(=O)[C@@H](N)Cc1ccc(O)cc1)[C@@H](C)O)[C@@H](C)O)[C@@H](C)CC)[C@@H](C)CC)C(=O)N[C@@H](CCC(=O)O)C(=O)NCC(=O)NCC(=O)N1CCC[C@H]1C(=O)N[C@@H](CO)C(=O)N[C@@H](CO)C(=O)NCC(=O)N[C@@H](C)C(=O)N1CCC[C@H]1C(=O)N1CCC[C@H]1C(=O)N1CCC[C@H]1C(=O)N[C@@H](CO)C(N)=O) [Peptide 88] | 4.27
Y-αMePro-EGTFTSDYSILLDEK((2-[2-(2-Amino-ethoxy)-ethoxy]-acetyl)2-(γGlu)-CO—(CH2)16—CO2H)AQQAFIEYLIEGGPSSG-NH2 (Y[αMeP]EGTFTSDYSILLDEK([AEEA-AEEA-γGlu-C18 diacid])AQQAFIEYLIEGGPSSG-NH2; N-terminus assumed; SMILES CC[C@H](C)[C@H](NC(=O)[C@H](CC(C)C)NC(=O)[C@H](Cc1ccc(O)cc1)NC(=O)[C@H](CCC(=O)O)NC(=O)[C@@H](NC(=O)[C@H](Cc1ccccc1)NC(=O)[C@H](C)NC(=O)[C@H](CCC(N)=O)NC(=O)[C@H](CCC(N)=O)NC(=O)[C@H](C)NC(=O)[C@H](CCCCNC(=O)COCCOCCNC(=O)COCCOCCNC(=O)CC[C@H](NC(=O)CCCCCCCCCCCCCCCCC(=O)O)C(=O)O)NC(=O)[C@H](CCC(=O)O)NC(=O)[C@H](CC(=O)O)NC(=O)[C@H](CC(C)C)NC(=O)[C@H](CC(C)C)NC(=O)[C@@H](NC(=O)[C@H](CO)NC(=O)[C@H](Cc1ccc(O)cc1)NC(=O)[C@H](CC(=O)O)NC(=O)[C@H](CO)NC(=O)[C@@H](NC(=O)[C@H](Cc1ccccc1)NC(=O)[C@@H](NC(=O)CNC(=O)[C@H](CCC(=O)O)NC(=O)[C@]1(C)CCCN1C(=O)[C@@H](N)Cc1ccc(O)cc1)[C@@H](C)O)[C@@H](C)O)[C@@H](C)CC)[C@@H](C)CC)C(=O)N[C@@H](CCC(=O)O)C(=O)NCC(=O)NCC(=O)N1CCC[C@H]1C(=O)N[C@@H](CO)C(=O)N[C@@H](CO)C(=O)NCC(N)=O) [Peptide 197] | 4.52
